In the supplement of paper PMC9876800:

System: peptide library, one residue held at a place counted from the S/T acceptor
Test: relative phosphorylation of the sub-library (ratio to the mean residue at this position); higher = residue favoured
Details: human
Method in brief: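 Purified recombinant kinases were reacted in 384-well plates with biotinylated degenerate peptide sub-libraries, each having one residue fixed at one position around a central Ser/Thr. The reaction mix contained 50 μM peptide plus 50 μM ATP spiked with γ-32P-ATP and ran for 90 min under kinase-specific conditions. Relative sub-library phosphorylation, taken from densitometry of phosphorimaged streptavidin membrane spots, is a ratio to the mean residue at that position.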

Sequence of PRKAA1, construct: Full length (Q13131 whole entry, looked up): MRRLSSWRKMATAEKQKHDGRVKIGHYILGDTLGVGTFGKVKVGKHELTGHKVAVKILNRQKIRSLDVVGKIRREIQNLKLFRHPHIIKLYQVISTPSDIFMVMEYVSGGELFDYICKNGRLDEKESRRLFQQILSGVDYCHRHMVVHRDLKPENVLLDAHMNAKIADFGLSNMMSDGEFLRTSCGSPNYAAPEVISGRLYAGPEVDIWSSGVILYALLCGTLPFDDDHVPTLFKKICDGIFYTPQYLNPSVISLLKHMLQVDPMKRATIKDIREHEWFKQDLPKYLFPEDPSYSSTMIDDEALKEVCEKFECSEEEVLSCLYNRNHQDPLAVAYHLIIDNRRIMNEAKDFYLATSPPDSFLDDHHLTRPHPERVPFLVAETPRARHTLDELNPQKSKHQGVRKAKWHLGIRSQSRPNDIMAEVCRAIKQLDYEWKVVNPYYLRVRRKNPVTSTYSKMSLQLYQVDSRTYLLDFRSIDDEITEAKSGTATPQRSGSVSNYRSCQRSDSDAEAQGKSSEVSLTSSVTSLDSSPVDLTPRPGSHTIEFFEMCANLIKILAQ
Sequence of PLK1, construct: Full length (P53350 whole entry, looked up): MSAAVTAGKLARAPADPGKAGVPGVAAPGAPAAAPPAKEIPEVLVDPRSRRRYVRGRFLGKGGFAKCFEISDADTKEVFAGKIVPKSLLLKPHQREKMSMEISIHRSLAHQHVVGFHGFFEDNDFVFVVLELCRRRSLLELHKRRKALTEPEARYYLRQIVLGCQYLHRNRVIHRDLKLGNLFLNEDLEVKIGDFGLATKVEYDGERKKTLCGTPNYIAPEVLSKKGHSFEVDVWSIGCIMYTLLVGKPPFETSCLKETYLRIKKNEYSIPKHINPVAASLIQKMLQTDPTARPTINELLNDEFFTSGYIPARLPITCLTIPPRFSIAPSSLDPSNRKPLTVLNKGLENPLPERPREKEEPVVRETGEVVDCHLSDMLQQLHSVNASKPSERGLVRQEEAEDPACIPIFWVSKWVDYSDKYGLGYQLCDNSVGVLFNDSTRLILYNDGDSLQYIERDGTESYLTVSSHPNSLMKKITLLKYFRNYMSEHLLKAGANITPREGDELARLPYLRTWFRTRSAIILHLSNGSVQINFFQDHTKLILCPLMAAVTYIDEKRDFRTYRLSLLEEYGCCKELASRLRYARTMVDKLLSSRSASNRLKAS

PKN1, construct: aa460-982 (from UniProt Q16512)
relative phosphorylation
Details | at +1 | at +2 | at +3 | at +4 | at -1 | at -2 | at -3 | at -4 | at -5
A fixed | 0.528 | 0.745 | 0.906 | 1 | 1.03 | 1.13 | 0.67 | 1.01 | 0.865
D fixed | 0.183 | 0.162 | 0.281 | 0.393 | 0.581 | 0.2 | 0.126 | 0.354 | 0.262
E fixed | 0.171 | 0.149 | 0.352 | 0.372 | 0.509 | 0.254 | 0.14 | 0.536 | 0.256
F fixed | 4.71 | 0.739 | 1.14 | 0.743 | 1.03 | 0.85 | 0.456 | 1.06 | 1.19
G fixed | 0.361 | 0.397 | 0.783 | 0.98 | 1 | 0.777 | 0.412 | 1.14 | 0.789
H fixed | 0.564 | 1.34 | 1.02 | 1.22 | 1.22 | 1.16 | 0.907 | 1.03 | 0.761
I fixed | 1.26 | 0.785 | 1.04 | 0.753 | 0.535 | 0.557 | 0.407 | 0.88 | 1.6
K fixed | 0.784 | 2.16 | 1.46 | 2.04 | 1.53 | 2 | 2 | 1.73 | 1.2
L fixed | 1.13 | 1.1 | 1.06 | 0.794 | 0.973 | 0.638 | 0.455 | 0.922 | 1.84
M fixed | 2.16 | 0.896 | 1.06 | 0.819 | 1.05 | 0.89 | 0.483 | 1.07 | 0.967
N fixed | 0.483 | 0.575 | 0.629 | 0.929 | 1.16 | 0.926 | 0.315 | 0.717 | 0.49
P fixed | 0.266 | 0.297 | 0.493 | 1.4 | 1.16 | 0.347 | 0.328 | 0.59 | 0.921
Q fixed | 0.62 | 0.578 | 0.736 | 0.996 | 0.947 | 1.05 | 0.585 | 0.842 | 0.643
R fixed | 0.999 | 4.44 | 2 | 1.86 | 1.51 | 3.36 | 8.17 | 2.01 | 1.61
V fixed | 0.852 | 0.749 | 1.02 | 0.678 | 0.622 | 0.781 | 0.373 | 0.991 | 1.55
W fixed | 0.889 | 0.675 | 1.5 | 1.15 | 0.9 | 1.1 | 0.58 | 0.992 | 0.926
Y fixed | 1.04 | 1.22 | 1.53 | 0.87 | 1.24 | 0.978 | 0.6 | 1.13 | 1.14
pThr fixed | 0.476 | 0.43 | 0.412 | 0.443 | 0.302 | 0.296 | 0.259 | 0.551 | 0.368
pTyr fixed | 0.314 | 0.354 | 0.567 | 0.384 | 0.388 | 0.266 | 0.215 | 0.412 | 0.514

PLK1, construct: Full length (from UniProt P53350)
relative phosphorylation
Details | at +1 | at +2 | at +3 | at +4 | at -1 | at -2 | at -3 | at -4 | at -5
A fixed | 0.622 | 0.73 | 0.85 | 0.951 | 0.748 | 0.452 | 0.934 | 1.12 | 1.16
D fixed | 0.419 | 0.677 | 1.4 | 1.35 | 1.62 | 3.98 | 1.1 | 1.47 | 1.34
E fixed | 0.461 | 0.705 | 1.87 | 1.48 | 1.46 | 2.28 | 1.23 | 1.31 | 1.1
F fixed | 3.16 | 1.2 | 0.935 | 0.898 | 0.734 | 0.523 | 1.09 | 0.918 | 0.876
G fixed | 0.524 | 0.439 | 0.881 | 1.01 | 0.451 | 0.679 | 1.23 | 1.09 | 1.21
H fixed | 0.809 | 1.28 | 1.13 | 1.01 | 1.03 | 0.861 | 1.47 | 0.981 | 1.1
I fixed | 1.28 | 1.37 | 1.05 | 0.769 | 0.976 | 0.402 | 0.66 | 0.816 | 0.757
K fixed | 0.593 | 0.567 | 0.679 | 0.782 | 1.04 | 0.495 | 0.689 | 0.942 | 1.02
L fixed | 1.36 | 1.7 | 1.02 | 0.795 | 0.964 | 0.53 | 1.33 | 0.979 | 0.807
M fixed | 1.72 | 1.4 | 0.972 | 0.932 | 1.2 | 0.505 | 1.38 | 0.95 | 0.802
N fixed | 0.606 | 1.14 | 0.82 | 1.1 | 1.24 | 2.86 | 1.08 | 1 | 1.22
P fixed | 0.246 | 0.421 | 0.579 | 1.41 | 0.42 | 0.33 | 0.785 | 0.836 | 0.936
Q fixed | 0.856 | 0.847 | 0.982 | 0.945 | 1.17 | 0.747 | 0.857 | 0.849 | 0.842
R fixed | 0.908 | 0.959 | 0.76 | 0.813 | 1.4 | 0.641 | 0.998 | 0.961 | 1.02
V fixed | 1.06 | 1.14 | 1.02 | 0.701 | 1.03 | 0.373 | 0.552 | 0.791 | 0.813
W fixed | 0.971 | 1.05 | 1.05 | 1.09 | 0.563 | 0.636 | 0.898 | 1.16 | 1.06
Y fixed | 1.4 | 1.38 | 1 | 0.958 | 0.952 | 0.709 | 0.718 | 0.832 | 0.927
pThr fixed | 2.54 | 0.971 | 0.987 | 2.29 | 1.02 | 0.627 | 0.945 | 1.03 | 1.3
pTyr fixed | 1.02 | 1.47 | 1.67 | 1.8 | 1.98 | 0.802 | 1.01 | 0.88 | 1.33

PRKAA1, construct: Full length (from UniProt Q13131)
relative phosphorylation
Details | at +1 | at +2 | at +3 | at +4 | at -1 | at -2 | at -3 | at -4 | at -5
A fixed | 0.927 | 1.41 | 0.812 | 0.574 | 1.05 | 1.27 | 0.845 | 1.21 | 0.908
D fixed | 0.609 | 0.529 | 1.53 | 0.606 | 0.666 | 0.413 | 0.32 | 0.497 | 0.381
E fixed | 0.781 | 0.496 | 0.935 | 0.516 | 0.578 | 0.475 | 0.453 | 0.63 | 0.374
F fixed | 1.63 | 0.899 | 1.1 | 1.25 | 0.643 | 0.718 | 0.516 | 0.682 | 1.2
G fixed | 0.773 | 0.759 | 0.902 | 0.659 | 1.4 | 1.05 | 0.889 | 1.2 | 0.857
H fixed | 1.18 | 1.48 | 1.5 | 0.757 | 1.11 | 1.28 | 1.28 | 1.19 | 0.816
I fixed | 0.75 | 1.38 | 0.705 | 2.17 | 0.379 | 0.944 | 0.402 | 0.659 | 1.41
K fixed | 1 | 0.723 | 1.15 | 0.753 | 1.93 | 1.73 | 2.54 | 2.1 | 1.35
L fixed | 0.813 | 1.23 | 0.803 | 2.67 | 0.63 | 0.541 | 0.45 | 0.643 | 1.63
M fixed | 1.49 | 0.855 | 0.833 | 1.89 | 0.972 | 0.638 | 0.609 | 0.895 | 1.5
N fixed | 0.86 | 1.08 | 1.55 | 0.775 | 1.12 | 1.7 | 0.869 | 0.947 | 0.724
P fixed | 0.231 | 1.31 | 0.39 | 0.767 | 1.32 | 0.783 | 1.04 | 1.19 | 0.944
Q fixed | 1.23 | 0.893 | 0.996 | 0.704 | 1.31 | 0.92 | 0.879 | 0.888 | 0.847
R fixed | 1.24 | 0.649 | 1.09 | 0.691 | 1.66 | 1.81 | 4.12 | 2.17 | 1.71
V fixed | 0.893 | 1.48 | 0.65 | 0.969 | 0.589 | 1.3 | 0.477 | 0.728 | 0.784
W fixed | 1.35 | 0.922 | 1.19 | 0.693 | 0.782 | 0.705 | 0.633 | 0.681 | 0.731
Y fixed | 1.23 | 0.897 | 0.866 | 0.556 | 0.87 | 0.716 | 0.677 | 0.705 | 0.836
pThr fixed | 0.737 | 0.513 | 0.427 | 0.606 | 0.418 | 0.679 | 0.632 | 0.724 | 0.726
pTyr fixed | 0.604 | 0.5 | 0.601 | 0.485 | 0.685 | 0.568 | 0.51 | 0.492 | 0.778

PRKCA, construct: Full length (from UniProt P17252)
relative phosphorylation
Details | at +1 | at +2 | at +3 | at +4 | at -1 | at -2 | at -3 | at -4 | at -5
A fixed | 0.485 | 0.407 | 0.553 | 0.819 | 0.905 | 0.911 | 0.726 | 1.03 | 1.09
D fixed | 0.185 | 0.216 | 0.528 | 0.597 | 0.541 | 0.467 | 0.389 | 0.578 | 0.646
E fixed | 0.21 | 0.16 | 0.526 | 0.514 | 0.472 | 0.407 | 0.439 | 0.724 | 0.643
F fixed | 1.74 | 0.477 | 1.01 | 0.553 | 0.637 | 0.727 | 0.963 | 0.892 | 1.14
G fixed | 0.648 | 0.42 | 1.16 | 1.46 | 2.07 | 1.34 | 1.23 | 1.47 | 1.53
H fixed | 0.597 | 1.23 | 1.12 | 1.09 | 0.948 | 0.985 | 1.05 | 1.04 | 0.997
I fixed | 1.64 | 0.499 | 0.602 | 0.58 | 0.389 | 0.413 | 0.501 | 0.59 | 0.646
K fixed | 1.69 | 3.79 | 1.99 | 2.3 | 1.88 | 1.79 | 1.6 | 1.39 | 1.43
L fixed | 1.42 | 0.395 | 0.843 | 0.499 | 0.638 | 0.469 | 0.493 | 0.549 | 0.688
M fixed | 1.33 | 0.571 | 0.741 | 0.564 | 0.826 | 0.678 | 0.796 | 0.649 | 0.626
N fixed | 0.561 | 0.86 | 0.918 | 1.04 | 1.39 | 1.08 | 1.2 | 0.915 | 0.877
P fixed | 0.364 | 0.401 | 0.697 | 1.55 | 1.26 | 1.13 | 1.43 | 1.45 | 1.22
Q fixed | 1.41 | 0.684 | 1.03 | 0.926 | 1.04 | 1.15 | 0.886 | 1.12 | 0.716
R fixed | 1.87 | 4.65 | 2.46 | 2.26 | 2.01 | 3.23 | 3.44 | 1.59 | 1.84
V fixed | 1.26 | 0.464 | 0.662 | 0.703 | 0.661 | 0.522 | 0.447 | 0.92 | 0.638
W fixed | 0.729 | 0.586 | 0.972 | 0.797 | 0.475 | 1 | 0.589 | 1.28 | 1.38
Y fixed | 0.867 | 1.19 | 1.19 | 0.747 | 0.862 | 0.686 | 0.811 | 0.805 | 0.884
pThr fixed | 0.729 | 0.345 | 0.663 | 0.482 | 0.348 | 0.603 | 0.636 | 0.807 | 0.655
pTyr fixed | 0.38 | 0.31 | 0.58 | 0.427 | 0.983 | 0.679 | 0.98 | 0.802 | 1.11
